Patent publication US20130324477

Molecular target: T1, recombinant filaggrin-2 (FLG2), positions 2 to 213 of Q5D862, fused to a Thioredoxin-His-S.Tag affinity label, Q5D862
T1 chain: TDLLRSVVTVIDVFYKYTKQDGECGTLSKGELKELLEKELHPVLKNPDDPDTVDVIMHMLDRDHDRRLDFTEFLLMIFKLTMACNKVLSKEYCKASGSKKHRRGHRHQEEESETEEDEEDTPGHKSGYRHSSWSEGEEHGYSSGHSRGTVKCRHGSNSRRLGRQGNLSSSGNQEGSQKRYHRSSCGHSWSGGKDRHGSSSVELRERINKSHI

B1: recombinant 28 kDa SASPase (SASPase-28), positions 85 to 343 of Q53RT3 (protein)
chain: MAGSGARSEEGRRQHAFVPEPFDGANVVPNLWLHSFEVINDLNHWDHITKLRFLKESLRGEALGVYNRLSPQDQGDYGTVKEALLKAFGVPGAAPSHLPKEIVFANSMGKGYYLKGKIGKVPVRFLVDSGAQVSVVHPNLWEEVTDGDLDTLQPFENVVKVANGAEMKILGVWDTAVSLGKLKLKAQFLVANASAEEAIIGTDVLQDHNAILDFEHRTCTLKGKKFRLLPVGGSLEDEFDLELIEEDPSSEEGRQELSH
  enzymatic activity of SASPase (hydrolysis of Dabcyl-QIDRIMEK-Edans, EDANS fluorescence at 340/490 nm): the enzymatic activity of SASPase is significantly increased in the presence of an increasing concentration of FLG2-Hs
